The source of these data is US20050232926A1, “Antibodies specific for cancer associated antigen SM5-1 and uses thereof” (Oncomax Acquisition Corp., priority 2003, published 2005).

Residues, ends and D or L forms follow the SMILES beside them. *: point of attachment. Cbz = O=C(OCc1ccccc1)*; CH2F = FC*

For one experiment, the system named is QYC cells. Description: Inhibition of huSM5-1 induced apoptosis by caspase inhibitors. It counts as cell-based, human. The settings on record: QYC cells incubated with caspase inhibitor at 50 mol/l for 2 h, then 50 ng/ml huSM5-1 antibody. Here is the method:
To determine whether caspase is involved in huSM5-1 antibody induced apoptosis, a variety of caspase inhibitors were tested to observe the inhibitory rate of apoptosis. The caspase inhibitors tested included common caspase inhibitor (Z-VAD-FMK), caspase-1 inhibitor (Z-WEHD-FMK), caspase-2 inhibitor (Z-VDVAD-FMK), caspase-3 inhibitor (Z-DEVD-FMK), caspase-4 inhibitor (Z-YVAD-FMK), caspase-6 inhibitor (Z-VEID-FMK), caspase-8 inhibitor (Z-IETD-FMK), caspase-9 inhibitor (Z-LEHD-FMK), caspase-10 inhibitor (Z-AVED-FMK), caspase-13 inhibitor (Z-LEED-FMK). QYC cells were incubated with caspase inhibitor at 50 mol/l for 2 h. QYC cells were then treated with 50 ng/ml huSM5-1 antibody. The inhibitory rates of these inhibitors were: 72% for pan-caspase inhibitor, 52% for caspase-10 inhibitor, 28% for caspase-6 inhibitor, 27% for caspase-1 inhibitor, 17% for caspase-8 inhibitor, 15% for caspase-13 inhibitor, 14% for caspase-4 inhibitor, 5% for caspase-9 inhibitor, 1% for caspase-2 inhibitor, 1% for caspase-3 inhibitor.

Experiment [1] concerns caspase-10. As to the kind of experiment: Caspase-10 colorimetric activity assay in huSM5-1 treated XJC cells. In kind it is cell-based. Here is the method: (§1) To further confirm that huSM5-1 induced apoptosis is caspase-10 related, caspase-10 color comparing analysis kit was used to examine the increase of caspase-10 bioactivity in QYC and XJC cells. Caspase-10 activity was examined with caspase-10 analysis kit (R&D, USA) according to manufacture's instruction. Cells were incubated with 50 ng/ml huSM5-1 antibody for a certain period of time. Cells were then centrifuged and lysed in a lysis buffer (25 ul/10^6 cells) on ice for 10 min. The lysates were centrifuged, and the supernatant was transferred into new tubes and kept on ice. The enzyme activity of caspase was examined on 96-well micro-titer plate. Each reaction included 50 μl supernatant from cell lysate, 50 μl 2× reaction buffer, 10 μl fresh DTT storage solution. In addition, 5 ul caspase-10 color-comparing substrate (AEVD-pNA) was added into the reaction. The plate was incubated at 37° C. for 1-2 h and absorbance at 405 nm was then measured. The increase of caspase-10 related activity was calculated according to the following equation: Caspase-10 activity (%)=(B−C)/(A−C)×100%
(§2) “A” represents OD value of supernatant from cell lysates without huSM5-1 antibody treatment; “B” represents OD value of supernatant from cell lysate treated with huSM5-1; “C” represents OD value of negative control. Each test was done in triplicate.

The subject of experiment [2] is melanoma cell line A2058. As to the kind of experiment: MTT assay of viable cells after huSM5-1 treatment. The settings on record: 570 nm, final volume 500 μl, 24 h. In kind it is cell-based, human. Here is the method:
(§3) The melanoma cell line A2058 was expanded to 10^6/ml in RPMI-1640 culture medium. The cell suspension (20 μl) and different amount of huSM5-1 (0, 1, 5, 10, 20, 50, 100 μl) were added into each well of the 96 well plate. The antibody huSM5-1 was diluted in RPMI-1640 medium containning 10% FCS to reach a final concentration of 1 μg/μl before it was added into the well. RPMI-1640 medium containing 10% FCS was added to each well to make a final volume of 500 μl in each well. Each condition was performed in triplicate. Cells were incubated at 37° C. in a humidified incubator at 5% CO2 for 24 h. At the end of the incubation, cells were suspended and viable cells were examined under microscope or assessed using MTT.
MTT solution (5 mg/ml) was added into 0.2 ml cell suspension describe above at 1:10 dilution. The cells were then incubated at 37° C. for 30 min and optical adsorption at 570 nm for each sample was read.

The test system of experiment [3] is caspase-10. Description: Caspase-10 colorimetric activity assay in huSM5-1 treated QYC cells. It counts as cell-based, human. Here is the method:
as §1, §2

The test system of experiment [4] is hepatocellular carcinoma cell line QYC. As to the kind of experiment: Cell growth inhibition by huSM5-1, MTT assay. In kind it is cell-based, human. Here is the method:
Cell growth inhibition by huSM5-1 antibody was tested using MTT assay. MTT assay is based on the principle that viable cells can reduce yellow MTT into blue purple crystals. Cells of interest (1×10^3) were incubated with various concentrations of antibodies. After a period of time, 20 μl MTT (0.5 mg/ml) was added into the cell culture medium and was incubated for 2 h. After the incubation, culture medium was removed and 150 μl DMSO was added to solubilize the MTT precipitate. The reduced MTT was examined by measuring absorbance at 490 nm using Benchmark optical absorption reading machine (Bio-Rad Laboratories). The cell growth inhibition was calculated according to the following equation: Inhibition (%)=(B−C)/(A−C)×100
“A” represents the OD value of cells without huSM5-1 treatment; “B” represents the OD value of huSM5-1 treated cells; and “C” represents the OD value of negative control. Each condition was performed in triplicate.
Growth inhibition by huSM5-1 were tested in four tumor cell lines (hepatocellular carcinoma cell QYC and XJC, breast cancer cell line MDA-MB-231, and melanoma cell line CRL-1872) using MTT assay. Cells were treated with different amount of huSM5-1 (50 ng/ml, 10 ng/ml, 1 ng/ml) for 24 h, 48 h, 72 h, and 96 h. The most inhibition occurred when the concentration of the antibody was at 50 ng/ml and after 72 h treatment.
Background: Tetrazolium dyes change colour on reduction, which living cells bring about.

The test system of experiment [5] is melanoma cell line A2058. Description: Viable cell count after huSM5-1 treatment. It counts as cell-based, human. The settings on record: final volume 500 μl, 24 h, relative to wells without huSM5-1. Here is the method:
as §3
Viable cells in 0.2 ml cell suspension from each well were counted. Viable cells are expressed as percentage of viable cells compared to the wells without addition of huSM5-1.

Regarding `COC(=O)C[C@H](NC(=O)[C@H](C)NC(=O)[C@@H](NC(=O)OCc1ccccc1)C(C)C)C(=O)CF` [pan-caspase inhibitor, Z-VAD-FMK] (Cbz-Val-Ala-Asp(OMe)-CH2F), the “inhibitory rate of huSM5-1 induced apoptosis” value (shortened to “inhibitory rate”) with QYC cells came out at 72%.
The same measure, in the same setting: with `CC[C@H](C)[C@H](NC(=O)[C@H](CCC(=O)OC)NC(=O)[C@@H](NC(=O)OCc1ccccc1)C(C)C)C(=O)N[C@@H](CC(=O)OC)C(=O)CF` [caspase-6 inhibitor, Z-VEID-FMK] (Cbz-VE(OMe)ID(OMe)-CH2F) the figure was 28%.
In the case of `CC[C@H](C)[C@H](NC(=O)OCc1ccccc1)C(=O)N[C@@H](CCC(=O)OC)C(=O)N[C@H](C(=O)N[C@@H](CC(=O)OC)C(=O)CF)[C@@H](C)O` [caspase-8 inhibitor, Z-IETD-FMK] (Cbz-IE(OMe)TD(OMe)-CH2F), in the experiment with QYC cells, the “inhibitory rate” value was 17%.
The same measure, in the same setting: the value for `COC(=O)CC[C@H](NC(=O)[C@H](CCC(=O)OC)NC(=O)[C@H](CC(C)C)NC(=O)OCc1ccccc1)C(=O)N[C@@H](CC(=O)OC)C(=O)CF` [caspase-13 inhibitor, Z-LEED-FMK] (Cbz-LE(OMe)E(OMe)D(OMe)-CH2F) was 15%.
Still for that read-out and setting: the value for `COC(=O)CC[C@H](NC(=O)[C@H](Cc1c[nH]c2ccccc12)NC(=O)OCc1ccccc1)C(=O)N[C@@H](Cc1cnc[nH]1)C(=O)N[C@@H](CC(=O)OC)C(=O)CF` [caspase-1 inhibitor, Z-WEHD-FMK] (Cbz-WE(OMe)HD(OMe)-CH2F) was 27%; that for `COC(=O)CC[C@H](NC(=O)[C@H](CC(=O)OC)NC(=O)OCc1ccccc1)C(=O)N[C@H](C(=O)N[C@@H](CC(=O)OC)C(=O)CF)C(C)C` [caspase-3 inhibitor, Z-DEVD-FMK] was 1%; that for `COC(=O)C[C@H](NC(=O)[C@H](C)NC(=O)[C@@H](NC(=O)[C@H](CC(=O)OC)NC(=O)[C@@H](NC(=O)OCc1ccccc1)C(C)C)C(C)C)C(=O)CF` [caspase-2 inhibitor, Z-VDVAD-FMK] (Cbz-VD(OMe)VAD(OMe)-CH2F) was 1%.
On the same count and under the same terms, the value for `COC(=O)CCC(NC(=O)C(NC(=O)C(C)NC(=O)OCc1ccccc1)C(C)C)C(=O)NC(CC(=O)OC)C(=O)CF` (stereo not drawn) [caspase-10 inhibitor, Z-AVED-FMK] (Cbz-AVE(OMe)D(OMe)-CH2F; configuration not given here) was 52%.
`COC(=O)C[C@H](NC(=O)[C@H](C)NC(=O)[C@@H](NC(=O)[C@H](Cc1ccc(O)cc1)NC(=O)OCc1ccccc1)C(C)C)C(=O)CF` [caspase-4 inhibitor, Z-YVAD-FMK]: the “inhibitory rate” value in the experiment with QYC cells is on record as 14%.
The same measure, in the same setting: the value for `COC(=O)CC[C@H](NC(=O)[C@H](CC(C)C)NC(=O)OCc1ccccc1)C(=O)N[C@@H](Cc1cnc[nH]1)C(=O)N[C@@H](CC(=O)OC)C(=O)CF` [caspase-9 inhibitor, Z-LEHD-FMK] (Cbz-LE(OMe)HD(OMe)-CH2F) was 5%.

B1: huSM5-1: human SM5-1 specific monoclonal antibody from phage library; VH SEQ ID NO:9, VL SEQ ID NO:10 (antibody, listed as Homo Sapiens, V domains shown)
VH: QVQLVESGGGVVQPGCSLRLSCSSSGYTFTSYTMHWVRQAPGKGLEWIGYINPYNDGGKYNEKFKWRFSISSDKSKNTLFLQSDSLTPEDTGVYYCARGSRYDWYGDYWGQGTPVTVSS
VL: DIQMTQSPSSLSGSVGDRVTITCDSSQSVLYSSKDDNYLAWYQQGPGKAPSLLIYYASDRESDVPSRFSGSGSGDDYTLTISSLQPEDAATYYCHQWFSSYTFDQGTKLNITR
Turning to B1, the “Caspase-10 activity (%)” value in the experiment on caspase-10 [1] (50 ng/ml huSM5-1, 48 h) is 17%; in the experiment with caspase-10 [1] (50 ng/ml huSM5-1, 72 h) it was 38%; in the experiment on caspase-10 [1] (50 ng/ml huSM5-1, 96 h), 28%; in the experiment on caspase-10 [3] (50 ng/ml huSM5-1, 48 h), 13%; in the experiment on caspase-10 [3] (50 ng/ml huSM5-1, 96 h), 51%. Moreover, the “Optical adsorption (%)” value in the experiment with melanoma cell line A2058 [2] (huSM5-1 addition 1 ul (1 μg/μl)) was found to be 96.3%; with melanoma cell line A2058 [2] (huSM5-1 addition 5 ul (1 μg/μl)), 84.9%; in the experiment with melanoma cell line A2058 [2] (huSM5-1 addition 10 ul (1 μg/μl)), 66.2%; in the experiment with melanoma cell line A2058 [2] (huSM5-1 addition 20 ul (1 μg/μl)) it was 47.7%; in the experiment on melanoma cell line A2058 [2] (huSM5-1 addition 50 ul (1 μg/μl)), 33.6%; in the experiment with melanoma cell line A2058 [2] (huSM5-1 addition 100 ul (1 μg/μl)), 20.1%. Also, the growth inhibition in experiment [4] (1 ng/ml, 24 h) is 7%; in experiment [4] (1 ng/ml, 48 h), around 5%; in experiment [4] (1 ng/ml, 72 h), 10%; in experiment [4] (1 ng/ml, 96 h), 2.5%; in experiment [4] (10 ng/ml, 24 h), 11%; in experiment [4] (10 ng/ml, 48 h), around 17%. For the same molecule, the growth inhibition is on record as 19% in experiment [4] (10 ng/ml, 72 h); 11% in experiment [4] (10 ng/ml, 96 h); 29% in experiment [4] (50 ng/ml, 24 h); “about 28%” in experiment [4] (50 ng/ml, 48 h); 43% in experiment [4] (50 ng/ml, 72 h); 36% in experiment [4] (50 ng/ml, 96 h). Also, the “Cell survival (%)” value with melanoma cell line A2058 [5] (huSM5-1 addition 1 μl (1 μg/μl)) stood at 87.8%; in the experiment with melanoma cell line A2058 [5] (huSM5-1 addition 5 μl (1 μg/μl)), 68.8%; with melanoma cell line A2058 [5] (huSM5-1 addition 10 μl (1 μg/μl)), 53.2%; with melanoma cell line A2058 [5] (huSM5-1 addition 20 μl (1 μg/μl)), 42.6%; with melanoma cell line A2058 [5] (huSM5-1 addition 50 μl (1 μg/μl)), 32.6%; in the experiment on melanoma cell line A2058 [5] (huSM5-1 addition 100 μl (1 μg/μl)), 22.6%.
